Article PMC2773364

Assays:
[1] = substrate: CC(C)C[C@H](NC(=O)OCc1ccccc1)C(=O)N[C@@H](Cc1ccc(O)cc1)C(=O)O; assay: purified protein; conditions: 50 mM acetate buffer, pH 3.7, 30°C
[2] = substrate: O=C(O)CC[C@H](NC(=O)OCc1ccccc1)C(=O)N[C@@H](Cc1ccc(O)cc1)C(=O)O; assay: purified protein; conditions: 50 mM acetate buffer, pH 3.7, 30°C

B1: recombinant CpI (Aspergillus oryzae RIB40) (protein)
chain: LPGSTPASVGRRQLPKNPTGVKTLTTANNVTIRYKEPGAEGVCETTPGVKSYSGYVDTSPESHTFFWFFEARHNPETAPITLWLNGGPGSDSLIGLFEELGPCHVNSTFDDYINPHSWNEVSNLLFLSQPLGVGFSYSDTVDGSINPVTGVVENSSFAGVQGRYPTIDATLIDTTNLAAEAAWEILQGFLSGLPSLDSRVQSKDFSLWTESYGGHYGPAFFNHFYEQNERIANGSVNGVQLNFNSLGIINGIIDEAIQAPYYPEFAVNNTYGIKAVNETVYNYMKFANQMPNGCQDLISTCKQTNRTALADYALCAEATNMCRDNVEGPYYAFAGRGVYDIRHPYDDPTPPSYYNKFLAKDSVMDAIGVNINYTQSNNDVYYAFQQTGDFVWPNFIEDLEEILALPVRVSLIYGDADYICNWFGGQAVSLAANYSQAAQFRSAGYTPLKVNGVEYGETREYGNFSFTRVYEAGHEVPYYQPIASLQLFNRTIFGWDIAEGQKKIWPSYKTNGTATATHTQSSVPLPTATSMSSVGMA
Km [1]: 340 µM | kcat [1]: 30.3 s⁻¹ | kcat/Km [1]: 89800 M⁻¹ s⁻¹ | Km [2]: 270 µM | kcat [2]: 20.1 s⁻¹ | kcat/Km [2]: 73200 M⁻¹ s⁻¹

B2: recombinant OcpA (Aspergillus oryzae RIB40) (protein)
chain: YVNNSGICETTKGVNQYSGYLSVGENQNMFFWFFESRNNPQQAPLSAWFNGGPGCSSMIGLFQEHGPCHFVNGEDTPSLNEHSWNNFANMLYIDQPIGVGFSYGDNPVNSTWTAAPYVWKFLQAFYEHFPQYESRDFGIFTESYGGHYGPGFASYILDQNNAIEAGSQKGEKVNLVALGINNGMFDSTLQEKAYITFAYNNTYRQLIDESLKDKLLEAYESECLPAVQKCQQTQTNEDCQNAGSVCGESVENPIMQAGGDFDVYDVREPSNDPNPPETYSKYIARPDIMKAIGARSDYQECADAPGQKFGATGDEYRSTLPDLSEVIKAGVNVLVWAGTADYICNVDGSIAVANAVDFSGHDEFQGKALEAYKVNGKEVGQFKSVDNFHLLTVYDAGHEVPYYQPETALQAFTQILQKKPLSST
Km [1]: 410 µM | kcat [1]: 18 s⁻¹ | kcat/Km [1]: 43900 M⁻¹ s⁻¹ | Km [2]: 260 µM | kcat [2]: 22.7 s⁻¹ | kcat/Km [2]: 85900 M⁻¹ s⁻¹
